Measurements as given in the supplement of paper PMC7877785.
± gives the uncertainty stated by the source.

Experiment: self-splicing fitness, log relative to wild type (ln ratio); higher = more splicing; Tetrahymena group I intron in knt gene, E. coli kanamycin selection, DiMSum; sequences stand for … in CUCUCU…GGAGGGAAAAGUUAUCAGGCAUGCACCUGGUAGCUAGUCUUUAAACCAAUAGAUUGCAUCGGUUUAAAAGGCAAGACCGUCAAAUUGCGGGAAAGGGGUCAACAGCCGUUCAGUACCAAGUCUCAGGGGAAACUUUGAGAUGGCCUUGCAAAGGGUAUGGUAAUAAGCUGACGGACAUGGUCCUAACCACGCAGCCAAGUCCUAAGUCAACAGAUCUUCUGUUGAUAUGGAUGCAGUUCACAGACUAAAUGUCGGUCGGGGAAGAUGUAUUCUUCUCAUAAGAUAUAGUCGGACCUCUCCUUAAUGGGAGCUAGCGGAUGAAGUGAUGCAACACUGGAGCCGCUGGGAACUAAUUUGUAUGCGAAAGUAUAUUGAUUAGUUUUGGAGUACUCGUGGUCG
Outline: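 Fitness was computed with DiMSum as the error-weighted combination of replicate fold changes, kanamycin versus none, each normalised to wild type. The library randomised all eight intron nucleotides of the P1ex region, with the intron placed in the knt kanamycin-resistance gene on pET-22b(+) in E. coli BL21(DE3). Six replicate transformations were grown overnight at 37°C or 30°C on LB agar with or without 25 μg/mL kanamycin, plus 100 μg/mL carbenicillin, 50 μM IPTG and 0.2% rhamnose. Pooled colonies were amplicon-sequenced on an Illumina HiSeq 2500.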

Row | Sequence | self-splicing fitness (ln) (30 °C) | self-splicing fitness (ln) (37 °C)
1 | GCGAAGCAAUAUUACGAUAC | -1.99 ± 0.17 | -0.487 ± 0.15
2 | GCGAAGCAAUAUUACGCUUC | -4.53 ± 0.46 | -2.58 ± 0.29
3 | GCGAAGCAAUAUUACGGCCG | -1.71 ± 0.29 | -1.34 ± 0.37
4 | GCGAAGCAAUAUUACGGGAC | -1.66 ± 0.16 | -2.2 ± 0.22
5 | GCGAAGCAAUAUUACGGGUG | -1.77 ± 0.085 | -1.88 ± 0.1
6 | GCGAAGCAAUAUUACGUACA | -1.9 ± 0.19 | -1.29 ± 0.14
7 | GCGAAGCAAUAUUACGUAUU | -3.7 ± 0.15 | -0.392 ± 0.093
8 | GCGAAGCAAUAUUACGUCUG | -1.68 ± 0.088 | -1.81 ± 0.15
9 | GCGAAGCAAUAUUACGUGAC | -1.51 ± 0.28 | -2.05 ± 0.29
10 | GCGAAGCAAUAUUACGUGGU | -3.09 ± 0.17 | -2.92 ± 0.2
11 | GCGCAGCAAUAUUACGACAU | -0.277 ± 0.012 | 0.253 ± 0.032
12 | GCGCAGCAAUAUUACGACGA | 0.345 ± 0.15 | -0.247 ± 0.17
13 | GCGCAGCAAUAUUACGACGC | -2.89 ± 0.33 | -1.81 ± 0.35
14 | GCGCAGCAAUAUUACGAGAA | -2.67 ± 0.21 | -0.894 ± 0.21
15 | GCGCAGCAAUAUUACGAGCG | -2.39 ± 0.15 | -2.26 ± 0.24
16 | GCGCAGCAAUAUUACGAGCU | -3.19 ± 0.28 | -1.74 ± 0.16
17 | GCGCAGCAAUAUUACGAUCU | -0.609 ± 0.055 | -0.141 ± 0.067
18 | GCGCAGCAAUAUUACGAUGU | -1.21 ± 0.077 | -0.279 ± 0.099
19 | GCGCAGCAAUAUUACGCAAU | -1.56 ± 0.09 | -0.27 ± 0.1
20 | GCGCAGCAAUAUUACGCACG |  | -1.39 ± 0.3
21 | GCGCAGCAAUAUUACGCACU | -1.97 ± 0.13 | -1.23 ± 0.12
22 | GCGCAGCAAUAUUACGCCUA | -0.46 ± 0.24 | 0.407 ± 0.16
23 | GCGCAGCAAUAUUACGCUCA | -0.576 ± 0.14 | 0.238 ± 0.16
24 | GCGCAGCAAUAUUACGCUUC | -1.97 ± 0.24 | -0.419 ± 0.15
25 | GCGCAGCAAUAUUACGGCAA | -0.734 ± 0.14 | -0.814 ± 0.14

Row | Sequence | self-splicing fitness (ln) (30 °C) | self-splicing fitness (ln) (37 °C)
26 | GCGCAGCAAUAUUACGGGUA | -2.4 ± 0.13 | -1.59 ± 0.1
27 | GCGCAGCAAUAUUACGGUUG | -2.53 ± 0.1 | -3.34 ± 0.19
28 | GCGCAGCAAUAUUACGUAAA | 0.442 ± 0.089 | 0.263 ± 0.12
29 | GCGCAGCAAUAUUACGUACA | -1.49 ± 0.084 | -0.256 ± 0.088
30 | GCGCAGCAAUAUUACGUAGG | -0.838 ± 0.061 | -0.551 ± 0.086
31 | GCGCAGCAAUAUUACGUCCC | -1.14 ± 0.3 | 0.234 ± 0.2
32 | GCGCAGCAAUAUUACGUCUA | -0.763 ± 0.07 | -0.321 ± 0.079
33 | GCGCAGCAAUAUUACGUUAG | -4.26 ± 0.2 | -2.26 ± 0.18
34 | GCGGAGCAAUAUUACGAACC | -1.32 ± 0.35 | 
35 | GCGGAGCAAUAUUACGAGAU | -2.21 ± 0.27 | -1.94 ± 0.4
36 | GCGGAGCAAUAUUACGAGCG | -1.01 ± 0.17 | 0.152 ± 0.35
37 | GCGGAGCAAUAUUACGAUCA | -2.43 ± 0.41 | -1.56 ± 0.32
38 | GCGGAGCAAUAUUACGAUCG | -0.357 ± 0.25 | -1.12 ± 0.3
39 | GCGGAGCAAUAUUACGAUGG | -1.16 ± 0.26 | -1.02 ± 0.32
40 | GCGGAGCAAUAUUACGAUUC | -1.32 ± 0.12 | -1.09 ± 0.15
41 | GCGGAGCAAUAUUACGCAUC | -4.01 ± 0.27 | -1.81 ± 0.35
42 | GCGGAGCAAUAUUACGCCGU | -1.4 ± 0.28 | 
43 | GCGGAGCAAUAUUACGCCUC | -3.43 ± 0.38 | -1.06 ± 0.36
44 | GCGGAGCAAUAUUACGCGUC | -3.26 ± 0.18 | -3.2 ± 0.25
45 | GCGGAGCAAUAUUACGCUCG | -2.94 ± 0.43 | 
46 | GCGGAGCAAUAUUACGGAGA | -2.07 ± 0.2 | -1.71 ± 0.41
47 | GCGGAGCAAUAUUACGGAUC | -0.472 ± 0.083 | -0.528 ± 0.17
48 | GCGGAGCAAUAUUACGGUAA | -3.29 ± 0.26 | -2.7 ± 0.31
49 | GCGGAGCAAUAUUACGGUAG | -2.77 ± 0.23 | 
50 | GCGGAGCAAUAUUACGGUAU | -3.38 ± 0.24 | -2.95 ± 0.26

Row | Sequence | self-splicing fitness (ln) (30 °C) | self-splicing fitness (ln) (37 °C)
51 | GCGGAGCAAUAUUACGGUGC | -3.56 ± 0.49 | 
52 | GCGGAGCAAUAUUACGGUGU | -3.36 ± 0.23 | -3.11 ± 0.35
53 | GCGGAGCAAUAUUACGUAAG | -3.35 ± 0.33 | -0.951 ± 0.19
54 | GCGGAGCAAUAUUACGUCCA | -2.88 ± 0.33 | -0.822 ± 0.32
55 | GCGGAGCAAUAUUACGUCCG | -0.898 ± 0.32 | -0.455 ± 0.25
56 | GCGGAGCAAUAUUACGUGAU | -2.01 ± 0.47 | -1.42 ± 0.3
57 | GCGGAGCAAUAUUACGUUGA | -2.63 ± 0.32 | -2.31 ± 0.32
58 | GCGUAGCAAUAUUACGAGUA | -1.64 ± 0.16 | -0.623 ± 0.13
59 | GCGUAGCAAUAUUACGAGUG | -1.78 ± 0.15 | -1.19 ± 0.21
60 | GCGUAGCAAUAUUACGAUAC | -1.95 ± 0.12 | -0.893 ± 0.12
61 | GCGUAGCAAUAUUACGCACU | -3.02 ± 0.24 | 0.255 ± 0.2
62 | GCGUAGCAAUAUUACGCUAA | -3.9 ± 0.27 | -2.25 ± 0.21
63 | GCGUAGCAAUAUUACGCUGA |  | -3.19 ± 0.3
64 | GCGUAGCAAUAUUACGCUGU | -3.16 ± 0.28 | 
65 | GCGUAGCAAUAUUACGCUUA |  | -2.06 ± 0.32
66 | GCGUAGCAAUAUUACGGGGU | -3.95 ± 0.19 | -1.86 ± 0.12
67 | GCGUAGCAAUAUUACGGGUA | -1.56 ± 0.11 | -0.91 ± 0.098
68 | GCGUAGCAAUAUUACGGUCG | -0.963 ± 0.16 | -1.07 ± 0.27
69 | GCGUAGCAAUAUUACGGUGC | -3.73 ± 0.32 | -2.95 ± 0.47
70 | GCGUAGCAAUAUUACGGUUA | -0.359 ± 0.1 | -0.119 ± 0.09
71 | GCGUAGCAAUAUUACGUAAU |  | -0.693 ± 0.32
72 | GCGUAGCAAUAUUACGUCCU | -1.47 ± 0.14 | -0.8 ± 0.15
73 | GCGUAGCAAUAUUACGUCGU | -2.13 ± 0.12 | -2.04 ± 0.18
74 | GCGUAGCAAUAUUACGUUAC | -2.56 ± 0.23 | -2.37 ± 0.32
75 | GCGUAGCAAUAUUACGUUCU | -2.08 ± 0.13 | -1.38 ± 0.15

Row | Sequence | self-splicing fitness (ln) (30 °C) | self-splicing fitness (ln) (37 °C)
76 | GCUAAGCAAUAUUACGAAGC | -3.24 ± 0.25 | -0.413 ± 0.23
77 | GCUAAGCAAUAUUACGAAGU | -3.47 ± 0.17 | -3.01 ± 0.34
78 | GCUAAGCAAUAUUACGACGU | -0.0363 ± 0.17 | 0.155 ± 0.19
79 | GCUAAGCAAUAUUACGACUU | -0.326 ± 0.09 | -0.0273 ± 0.098
80 | GCUAAGCAAUAUUACGAGGG | -2.18 ± 0.14 | -1.64 ± 0.16
81 | GCUAAGCAAUAUUACGAUCA | -1.29 ± 0.11 | -0.823 ± 0.093
82 | GCUAAGCAAUAUUACGAUCU | -0.886 ± 0.13 | 0.178 ± 0.14
83 | GCUAAGCAAUAUUACGAUUU | -0.73 ± 0.065 | 0.0848 ± 0.075
84 | GCUAAGCAAUAUUACGCACU | -0.54 ± 0.071 | 0.421 ± 0.11
85 | GCUAAGCAAUAUUACGCCGG | -2.65 ± 0.2 | -1.33 ± 0.19
86 | GCUAAGCAAUAUUACGCUGC | -3.12 ± 0.34 | 
87 | GCUAAGCAAUAUUACGCUUU | -3.06 ± 0.15 | -1.71 ± 0.15
88 | GCUAAGCAAUAUUACGGAAC | -1.46 ± 0.093 | -0.743 ± 0.1
89 | GCUAAGCAAUAUUACGGCCA | -0.635 ± 0.2 | -1.58 ± 0.2
90 | GCUAAGCAAUAUUACGGCUU | -0.732 ± 0.1 | -0.973 ± 0.16
91 | GCUAAGCAAUAUUACGGGAC | -2.81 ± 0.13 | -1.53 ± 0.14
92 | GCUAAGCAAUAUUACGGGCG | -0.341 ± 0.12 | 0.183 ± 0.14
93 | GCUAAGCAAUAUUACGGGGU | -2.06 ± 0.18 | -3.04 ± 0.25
94 | GCUAAGCAAUAUUACGUCAU | -1.7 ± 0.095 | 0.727 ± 0.12
95 | GCUAAGCAAUAUUACGUGAG | -0.321 ± 0.06 | -0.28 ± 0.071
96 | GCUAAGCAAUAUUACGUGCC | -3.59 ± 0.24 | -2.35 ± 0.23
97 | GCUAAGCAAUAUUACGUGCG | -1.07 ± 0.086 | 0.103 ± 0.1
98 | GCUAAGCAAUAUUACGUGUU | -1.78 ± 0.072 | -0.774 ± 0.093
